Source: the supplement of paper PMC12042874
± gives the uncertainty stated by the source.

Experiment: amyloid nucleation score (Sup35N fusion, yeast selection) (log enrichment); library NNK1; higher = more nucleation; inactive = no reads after selection
Method in brief: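 Peptides of 20 random codons fused to Sup35N were expressed in psi-negative yeast, induced 24 hours with 100 μM copper sulfate, then grown 7 days at 30°C on medium lacking adenine and uracil. Input and output plasmid inserts were Illumina-sequenced. Nucleation score is the DiMSum log enrichment of output over input reads, centred on the mode score of non-aggregating sequences, excluding sequences with under 100 input reads. Random libraries had three technical output replicates.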

Substance | amyloid nucleation score
WPDISCPPCNGDRMTVKWHV | 0.836 ± 0.97
WPIRVMMGYRLLGMDRNVFG | 0.129 ± 0.68
WPNTPSVTKWTYLFVLHPRM | -0.854 ± 0.95
WQHFLFCKKKRVESCNVSTN | 1.02 ± 0.76
WQVNVLIIMCGSFLLVFDFQ | 0.359 ± 0.45
WRGISVQAVRRLCAKNKSSR | 1.25 ± 0.85
WRHATSEMCFEGMLKCKVVT | 0.903 ± 0.57
WRLLCSITMDWF | -0.15 ± 0.22
WRQYIDRNYVSCSASMLAWE | 0.583 ± 0.43
WRVSVKVVSAELEGMRNFAV | 0.259 ± 0.49
WSGFQCSQDEWNLSMTIVRA | -0.097 ± 0.78
WSKHLAYIVYDVQ | -0.325 ± 1
WSKYVESVRVETVGQVFQLV | -0.009 ± 0.51
WSNADEFGPD | -0.256 ± 0.51
WSNGF | 1.89 ± 0.45
WSRAVVFMSIHFRNGLMQ | -0.444 ± 0.64
WSRHELWWVPCCDRMLVLGH | 0.746 ± 0.9
WSRYNSPCSKSMRYRSVSEA | -1.37 ± 1.1
WTAFGRFAVQTFFEKHM | -0.275 ± 0.24
WTLQMLAYWYLTFFFPSFVY | 0.169 ± 0.37
WTMLDMFLFS | -0.872 ± 0.42
WTRCHK | -0.297 ± 0.35
WTRIDSSVYARKGFCAPRLP | 0.021 ± 1.1
WTVLGYFRALQASLRASAGM | 0.099 ± 0.71
WVCLNYYWGCVRRTTRVFCL | -0.198 ± 0.52

Substance | amyloid nucleation score
WVFEPMEWFDYKFSYHF | -0.255 ± 0.42
WVGFGDVKSVTVMLYAPAWT | 5.04 ± 0.094
WVGLSFDDIKIYSASSN | 0.308 ± 0.52
WVINFVGKTCDTIDP | inactive
WVRGSYPPDAHR | 1.86 ± 0.29
WVVLFLLWNGWVDWHIRTEQ | -0.128 ± 0.36
WVWKTNWWYTRRIASLWDSR | 1.7 ± 0.56
WVYHRQKSCAIFRAEIM | -0.088 ± 0.48
WWDAEFGGKSRAS | -0.012 ± 0.57
WYAFERFDFHLCVDVVQLTR | 1.11 ± 0.94
WYHFVSGAVPHGSNEPKEFN | -1 ± 0.9
WYSVKESLGSPSLPSQFLST | inactive
WYVLCYGPRFFYMSRLS | -0.411 ± 0.3
YAAGGIRKSVGSTVRSPWGA | 0.903 ± 0.84
YACQQ | 0.314 ± 0.62
YAFLSEYFSAK | -0.054 ± 0.24
YAFRSRHRSFSFIGTLMVFD | 0.55 ± 0.5
YAGVRLWRRVWRAKTACSVA | 0.169 ± 0.56
YAKVSAIERRCWVMSVTYPD | 0.171 ± 0.28
YALKLSMDVGLYLLFEGDRD | -1.36 ± 1.9
YASCCTDCNWLCFFRRLREA | 7.041 ± 0.054
YASVIVTQHRTMICRQTLCR | 1.46 ± 0.51
YASVVGYLPGCTNINAMKNR | inactive
YCASFRINVIFV | 3.79 ± 0.086
YCCSCASCGPGVNRSWGN | 1.57 ± 0.16

Substance | amyloid nucleation score
YCKFMLMGNHCFDLFCYSLN | 3.96 ± 0.09
YCLCCHLLKT | inactive
YCQCVCFSAMYSKTSRLNMG | 6.744 ± 0.066
YCQQT | -1.28 ± 0.64
YCTLFGSWPLIVVVGG | -0.772 ± 0.77
YCVQFVRLMLKKNGRGYNYR | -0.762 ± 1.1
YDAIYV | 0.368 ± 0.63
YDILNGQAHDCYETMVKGWG | -0.372 ± 0.47
YEGELTSKKFFAQVNSRVGG | -0.581 ± 1.4
YERGNFCWTIILRFLEF | -1.22 ± 0.78
YFAYQDILVNDTIRIL | 0.063 ± 0.56
YFCQWH | inactive
YFEWFVYLYSSRVFFLMLGR | -0.038 ± 0.62
YFFITRAEVSDVVLLLCVCC | -0.158 ± 0.82
YFIPEFSTCVMWRSNNTGKY | -0.211 ± 1.2
YFLFFFHVDCLRNASC | -1.25 ± 2.7
YFLLACLNVS | 0.828 ± 0.26
YFLTHRTGRYNMGDSSVRTL | -0.319 ± 0.38
YFQQEVQFEWGCVWREWCDC | 0.197 ± 0.52
YFSFLDNGGMPYVVVDYGLC | 0.042 ± 0.85
YFSLSVIREVCFFVPWKLRS | 0.14 ± 0.43
YFSYSLQKTAARRGVVMFTQ | -0.378 ± 1.4
YFVMITCFYVILL | -0.126 ± 0.2
YFVQGNMNLSHCTCWCGNRT | 7.589 ± 0.046
YFVSCLFILWPRQSSTRPFE | 8.165 ± 0.077

Substance | amyloid nucleation score
YGGFIESLLACAKGESRNMM | -0.608 ± 1
YGGMDS | 0.132 ± 0.5
YGLEYVYVVV | 0.277 ± 1.4
YGMAF | -1.71 ± 2.4
YGNWFYIFFS | 6.471 ± 0.054
YGQIPTFHRRSQVHLCNRIW | 0.206 ± 1.6
YGSAVVRQCFG | -0.114 ± 0.35
YGSDGCKRRKGSTALAIVTY | 0.423 ± 0.41
YGSNWLEGVGLYRGVARQSW | -0.781 ± 0.43
YGVMSLRGVRLVQDVKTRSF | -0.849 ± 0.62
YHGGYGSSHMWRFVRCIKAY | 0.168 ± 0.27
YHLERKGPAFVNFLTMGSCR | -0.908 ± 0.85
YHVWTFWRRLETRINFQM | 1.13 ± 0.98
YIFENLARAPMLQ | 0.259 ± 0.74
YIGRGNMHELFHRLLRGCVL | inactive
YIKGDQLVVVDTYMFRVKL | -0.991 ± 2.4
YILDGESAYFVLLYEKVYFS | -0.403 ± 0.53
YINLSYPIFTNSDLFGPCWH | 3.45 ± 0.12
YIPTCAGDWLQFNYYNLMCW | 0.149 ± 0.38
YIYRDTYLRTPKLGSHMYCL | inactive
YKAERVKSVRTITPRVTLLW | -0.331 ± 0.61
YKKRMLSLWYYGAGIQHRAL | 0.412 ± 0.43
YKLFGFFGRHPVNWYV | 0.344 ± 0.51
YKMYWISVAVLKRYNLLHQS | -0.111 ± 0.44
YKNTCQLYPRVFTPWWYERM | 0.173 ± 0.67

Substance | amyloid nucleation score
YKSLDGF | 0.704 ± 0.93
YKWGWAVYHIGHGCRVWRWT | 1.49 ± 0.4
YKYFCGYKLSVEDLLLSVYQ | 0.188 ± 0.27
YLCPFIYMAHSGSSDVCLIV | 3.38 ± 0.11
YLCSSVPLSEHNLILSITWD | inactive
YLDCIYRGKIISIHTGSGIL | -0.449 ± 0.29
YLDLFTGSSH | -0.368 ± 0.27
YLDSILYMGLTDLVWQVGTT | -0.334 ± 0.43
YLEVPMKFFEFFGFRPVAFV | -0.121 ± 0.54
YLFMNRGTVSWRSVYDRV | 0.104 ± 0.42
YLGWDRNRDYEWAIDASRAN | inactive
YLIFKSFK | 1.25 ± 0.61
YLILLWWTNCRARAKERVDR | -0.155 ± 1.1
YLIWLLGFANILYHYTL | inactive
YLKGVG | 0.104 ± 0.74
YLLLLDGGPSPVLAIRHVNG | -0.989 ± 0.76
YLLQSAIFGAGVHT | 0.672 ± 0.39
YLMKRSWTGMIGLGTQVKSS | 0.9 ± 0.58
YLNSFLYVMLFLVPDRSVTR | 6.18 ± 0.068
YLNTLRR | inactive
YLQIWRLSRRSILL | inactive
YLRRHQRNLPEQCCEAGINV | -1.37 ± 1.5
YLRVNAHMLDYSF | -0.513 ± 1
YLSFSSAHDDIEWVGISCR | inactive
YLTQLV | 0.528 ± 0.38

Substance | amyloid nucleation score
YLVMRMMVLRMAKPKIVGRD | 5.524 ± 0.051
YLVTGVGYGGCNIRLWE | 0.355 ± 0.83
YMKMMYAIYCLWLRHYSMLF | inactive
YMRGGQDFYYVQDIVVFLLL | 4.24 ± 0.094
YMVHMK | 0.121 ± 0.76
YMYEMGICFELDDTHEG | 0.608 ± 0.55
YNLWIGLCRIMEEVILGGT | -0.863 ± 0.61
YNRLKSIV | 1.51 ± 0.72
YNVIWSMVGEYLHSSCYGPV | inactive
YNVKVMCSVQSEMRGIT | 0.465 ± 0.68
YNVSHLIRV | -0.959 ± 0.26
YPCNLFCMMTLLNYLGSSVA | 6.49 ± 0.074
YQDAGVLGRLPHLFTNGSFT | 0.021 ± 0.93
YQDFAGDARFGEIRWYYPKS | 0.125 ± 0.41
YQDVVDSDD | -0.762 ± 0.64
YQSFLASACSSEPIRFSKQH | 0.915 ± 0.66
YRFRWRNWSMWVSHKAHKAS | 0.851 ± 0.74
YRLILVANVQMDHWES | -0.38 ± 0.44
YRVHVCQEWMGSWCCGCVKG | 2.54 ± 0.2
YRVSNVNFSFATFFTHAPVR | 1.76 ± 0.16
YRVVACMGCALRLVWLARYR | -0.31 ± 0.3
YSCMGECFTC | 7.89 ± 0.067
YSFRAIDTQLTQTLTWLLIR | -0.563 ± 0.53
YSGRRQETNVGRLRSNWGGL | -0.568 ± 0.39
YSGWEEITVFFSDARV | -0.115 ± 1.3

Substance | amyloid nucleation score
YSHFEQYMDNFNIMNYDYRD | -0.879 ± 1.2
YSIFTIKGRDCKLFITNNVS | 7.468 ± 0.045
YSLFAGLREVSMDVCNDV | 0.39 ± 0.5
YSLLY | -0.652 ± 0.66
YSLNFYAMPRSSI | 3.76 ± 0.1
YSLTYVNSYLFGINDCKGPD | 8.164 ± 0.054
YSMLCLKYL | inactive
YSNFFQHRTWMIDCSFPTGL | 0.147 ± 0.37
YSNLIDGS | 7.378 ± 0.047
YSNLYFSLNNGNPVLKGYNG | -0.17 ± 0.65
YSNSGMGNV | 0.568 ± 0.21
YSRLSCWYYAPGVSLGVIKW | 0.483 ± 0.48
YSRMQVAIYMYLVE | 3.19 ± 0.17
YSRSVGYRRYFI | inactive
YSSGKELTGLLDKKFIIGLD | -0.186 ± 0.39
YSTLRGFNYVFLKYIVK | 0.724 ± 0.54
YSVMSSRSGIVGSWVHRGVQ | 0.38 ± 0.32
YSVVRCRVANC | 0.263 ± 0.61
YSYKCGGVRTSTSFLSMLFV | 0.811 ± 0.18
YSYMTYRALFVVTSCLSRWG | 1.11 ± 0.66
